The record followed here is patent US20090041783A1 (MOCHIDA PHARMACEUTICAL, published 2009).

In assay [1] the target is T1, human GPVI extracellular region-human Fc fusion protein (hGPVI-hFc) (human).
T1 construct: Expressed in COS-1, purified on Protein A; also called GPVI-HHH-hFc; hGPVIHHH-hFc
The assay is described as follows: SPR (BIACORE3000), GPVI-Fc on CM5 chip, antibody 1.25-40 nM as analyte, bivalent analyte fit. How it is done: (§1) Dissociation constant for the anti-GPVI monoclonal antibody prepared in EXAMPLE 2 was measured using protein interaction analyzer BIACORE3000 (BIACORE). That is, to sensor chip, CM5 chip (BIACORE), GPVI substitution mutant (hGPVIHHH-hFc and FFH-hFc) that is prepared in EXAMPLE 1 was linked according to the manual. Then each antibody was diluted with HBS-EP buffer solution (BIACORE) to prepare a series of diluted solution from 1.25 to 40 nM, and analyzed with BIACORE3000. Every each antibody bound chip, the chip was regenerated with glycine buffer solution at pH1.5. The obtained result was analyzed with Bivalent analyte, the evaluation software (BIACORE) to calculate dissociation constant. It was shown that each anti-GPVI monoclonal antibody has a sufficient affinity to GPVI-HHH-hFc.

Assay [2] deals with T2, cynomolgus monkey D1D2-human D3 chimeric GPVI-human Fc fusion protein (GPVI-FFH-hFc) (cynomolgus monkey (D1, D2) and human …).
T2 construct: also called Monkey GPVI
Described as above. How it is done:
as §1

The target of assay [3] is T1, human GPVI extracellular region-human …. The assay is described as follows: ELISA, collagen on plate, hGPVI-hFc plus antibody; +++ more than 50%, ++ 30-50%, + 10-30% inhibition.
Assay [4] shares this target. The assay is described as follows: competition ELISA on hGPVI-hFc plate; competitor: peroxidase-labelled F1232-37-2; +++ more than 50%, ++ 30-50%, + 10-30% inhibition. How it is done: (§2) To analyze a property for each antibody obtained in EXAMPLE 13, binding to human GPVI-hFc, competition with F1232-37-2 described in EXAMPLE 4 and specificity for L9 loop were investigated. That is, as for the binding to human GPVI, according to the method of EXAMPLE 2, a binding activity to immobilized antigen was measured. For the binding activity, the range of absorbance from 0.5 to 1.0 is represented by “+”, from 1.0 to 2.0 by “++”, the range more than 2.0 by “+++”. The competitive test with F1232-37-2 was performed as follows. That is, according to the method by Nakane et al. (J. Histochem. Cytochem., 22, 1084, 1974), peroxidase (TOYOBO)-labeled F1232-37-2 antibody was prepared and an antibody concentration was calculated from the amount of the antibody used.
Next, by using the peroxidase-labeled antibody, the competitive test for a variety of purified antibody was performed. That is, 25 μL of the above labeled antibody and 25 μL of each purified antibody were added to well of hGP-hFc-immobilized plate. After incubation at 37° C. for one hour, the well was washed five times with the saline containing 0.05% Tween20, and the reaction mixture was developed with TMB solution (BioFix). After incubation at room temperature for 10 minutes, the reaction was terminated with 0.5 M sulfuric acid solution and an absorbance at 450 nm was measured with the plate spectrophotometer (Multi-Scan JX, Dainippon Pharmaceutical).

For assay [5] the target is unchanged. The assay is described as follows: ELISA of hybridoma culture supernatant on coated hGPVI-hFc (selection criterion). How it is done:
Next, culture supernatant was added to each well and incubated at 37° C. for one hour. After incubation, the well was washed three times with the saline containing 0.05% Tween20. Peroxidase-labeled anti-mouse immunoglobulin antibody (DAKO, P260) was 1000-fold diluted with D-PBS containing 10% rabbit serum and added to each well at 50 μL. After incubation at 37° C. for one hour, washing in a similar manner was performed and TMB solution (BioFix) was added to each well. After ten minutes at room temperature, the reaction was terminated with 0.5 M sulfuric acid solution. Subsequently, absorbance at 450 nm was measured with the plate spectrophotometer (Multiscan JX, Dainippon Pharmaceutical). As a result, the cell whose culture supernatant reacted to hGPVI-hFc was selected and a cloning with limiting dilution method (“The Introduction to Monoclonal Antibody Experimental Procedure” written by Tamie Andoh and Takeshi Chiba (Kodansha, p 83)) was performed. Eight days later, screening was done in a similar manner and the antibody which reacts to hGPVI-hFc was selected.
After one week, hybridoma, which produces a desired antibody was screened using the binding property to hGPVI-hFc and hGPVI-mL9-hFc prepared in EXAMPLE 7 as an index. That is, the purified hGPVI-hFc or hGPVI-mL9-hFc, which was prepared in EXAMPLE 1, was diluted with D-PBS (pH7.4) to 1 μg/mL. And 50 μL/well of the solution was added to make hGPVI-hFc or hGPVI-mL9-hFc-coated plate using the same method as that of EXAMPLE 2. Next, a culture supernatant was added to each well, and after incubation at room temperature for one hour, by the same method as that of EXAMPLE 2, using peroxidase-labeled anti-mouse immunoglobulin antibody (DAKO, P260) a reaction was performed to measure an absorbance. As a result, the cell producing an antibody that binds to the purified hGPVI-hFc (absorbance: equal to or more than one), but not hGPVI-mL9-hFc (abdorbance: equal to or less than 0.5) was selected and cloned by the method described in EXAMPLE 2. Eight through ten days later, a screening was done as with the similar way to obtain a hybridoma producing an L9-specific mouse anti-human GPVI antibody. As with EXAMPLE 2B (3), the obtained hybridoma was cultured and a monoclonal antibody was purified. The sub-type of each antibody was determined using IsoStrip Mouse Monoclonal antibody Isotyping Kit (Roche).

Assay [6] shares this target. The experiment in a line: ELISA on immobilised hGPVI-hFc; + A450 0.5-1.0, ++ 1.0-2.0, +++ more than 2.0. How it is done: The hGPVI-hFc prepared by EXAMPLE 1B was diluted with D-PBS to 2 μg/mL and added to immunoplate (Maxisorp NUNC) at 50 μL/well. After incubation at 37° C. for one hour, the well was washed five times with ion-exchanged water, and D-PBS (pH7.4) containing 2% StabilGuard (Surmodics) was added to each well in 100 μL for blocking. Next, culture supernatant was added to each well and incubated at 37° C. for one hour. After incubation, the well was washed three times with the saline containing 0.05% Tween20. Peroxidase-labeled anti-mouse immunoglobulin antibody (DAKO, P260) was 1000-fold diluted with D-PBS containing 10% rabbit serum and added to each well at 50 μL. After incubation at 37° C. for one hour, washing in a similar manner was performed and TMB solution (BioFix) was added to each well. After ten minutes at room temperature, the reaction was terminated with 0.5 M sulfuric acid solution. Subsequently, absorbance at 450 nm was measured with the plate spectrophotometer (Multiscan JX, Dainippon Pharmaceutical). As a result, the cell whose culture supernatant reacted to hGPVI-hFc was selected and a cloning with limiting dilution method (“The Introduction to Monoclonal Antibody Experimental Procedure” written by Tamie Andoh and Takeshi Chiba (Kodansha, p 83)) was performed. Eight days later, screening was done in a similar manner and the antibody which reacts to hGPVI-hFc was selected.
as §2

T2 sequence (chain, as listed by the source mutant limits assumed): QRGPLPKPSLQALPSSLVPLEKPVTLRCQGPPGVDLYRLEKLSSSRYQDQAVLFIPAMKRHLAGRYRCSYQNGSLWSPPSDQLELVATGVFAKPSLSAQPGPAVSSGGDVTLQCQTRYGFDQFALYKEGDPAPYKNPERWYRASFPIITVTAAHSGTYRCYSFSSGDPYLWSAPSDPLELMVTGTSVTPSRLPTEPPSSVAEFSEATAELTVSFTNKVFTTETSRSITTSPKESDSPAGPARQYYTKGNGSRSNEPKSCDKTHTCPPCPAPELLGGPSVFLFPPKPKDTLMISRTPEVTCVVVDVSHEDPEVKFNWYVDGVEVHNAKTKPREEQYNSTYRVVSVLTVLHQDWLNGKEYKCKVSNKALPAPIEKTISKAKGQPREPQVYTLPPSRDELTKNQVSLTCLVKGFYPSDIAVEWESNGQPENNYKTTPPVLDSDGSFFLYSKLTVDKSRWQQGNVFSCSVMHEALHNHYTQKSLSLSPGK
T1 sequence (chain, as listed by the source limits assumed): as the sequence (chain, as listed by the source mutant limits assumed) above, with R2S, H61S, P78L, G166R, M181V, S442P counted along it

B1: F1232-7-1 (antibody, V domains shown)
VH: VQLQQSGPELVRPGESVKISCKGSGYTFTDYAIHWVKLSHAKSLEWIGVISIYYDDTNYNQKFKGKATMTVDKSSSTAYMELARLTSEDSAIYYCARRRDSSGPYAMDYWGQGTSVTVSS
VL: DIVLTQSPASLAVSLGQRATISCRASESVDSYGNSFMHWYQQKPGQPPKLLIYRASNLESGIPARFSGSGSRTDFTLTINPVEADDVATYYCQQSNEDPYTFGGGTKLEIKR
notes: Mouse hybridoma monoclonal antibody; also called F1232-7-1 antibody
For B1, the Kd was determined as 34.7 nM in assay [1] and 343 nM in assay [2].

B2: F1249-24-1 (antibody, V domains shown)
VH: QVQLQQSGAELVRPGVSVKISCKGSGYTFTDYAMHWVKQSHAKSLEWIGVISTYYGDTSYNQKFKGKATMTVDKSSSTAYMELARLTSEDSAIYYCARAEDYDPWFAYWGQGTLVTVSA
VL: DIVLTQSPASLAVSLGQRATISCRASESVDSYGNSFMHWYQQKPGQPPKLLIYRASNLESGIPARFSGSGSRTDFTLTINPVEADDVATYYCQQSDEDPLTFGAGTKLELKR
B2: the percent inhibition in assay [3] is 10 to 30%; in assay [4] it was more than 50%. In addition, the absorbance is not below 1 absorbance in assay [5] and more than 2 od in assay [6].

B3: F1201-18 (antibody, V domains shown)
VH: VQLVESGGGLVKPGGSLKLSCAASGFTFSSYAMSWVRQTPEKRLEWVAIISSGGSYTYYPDSVKGRFTISRDNAKNTLYLHMSSLRSEDTAMYYCARQGGGYFDYWGQGTTLTVSS
VL: DIVLTQSPASLAVSLGQRATISCRASESVDSYGNSFMHWYQQKPGQPPKLLIYRASNVESGIPARFSGSGSRTDFTLTINPVEADDVATYYCQQSNEDPPTFGAGTKLELKR
notes: Mouse hybridoma monoclonal antibody
On to B3, for which the Kd in assay [1] stood at 1.16 nM; in assay [2] it was 0.619 nM.

B4: F1232-17-1 (antibody, V domains shown)
VH: VQLVESGGDLVKPGGSLKLSCAASGFTFSSYGMSWVRQTPDKRLEWVATISSGGSYTYYPDNVKGRFTISRDNAKNTLYLQMSSLNSEDTAMYYCARQVYYFGSCDYWGQGTTLTVSS
VL: DIVLTQSPASLAVSLGQRATISCRASESVDNYGISFMHWYQQKPGQPPKLLIYRASNLESGIPARFSGSGSRTDFTLTINPVETDDVATYYCQQSNKDPWTFGGGTKLEIKR
notes: as for B3
For B4, the Kd was determined as 0.522 nM in assay [1] and 0.177 nM in assay [2].

B5: F1251-1-1 (antibody, V domains shown)
VH: QVNLLQSGAALVKPGASVKLSCKASGYTFTDYYIHWVKQSHGKSLEWIGYINPNSGYTNYNEKFKSKATLTVDKSTNTAYMELSRLTSEDSATYYCTRCNSGYGDWFAYWGQGTLLTVSS
VL: DIQMTQSPPVLSASVGDRVTLSCKASQNINKNLDWYQQKHGEAPKLLIYYTNNLQTDIPSRFSGSGSGTDYTLTISSLQPEDVATFYCYQYNSGPGTFGAGTKLELKR
As for B5, the percent inhibition in assay [3] and in assay [4] was 10 to 30% each time. The results for the absorbance in assay [5] and in assay [6] were not below 1 absorbance and 0.5 to 1 od, respectively.

B6: F1249-18-2 (antibody, V domains shown)
VH: QVQLQQPGAELVKPGASVKLSCKASGYTFTSYWMHWLKQRPGQGLEWIGMIHPNSDITNYNEKFKNKATLTVDKSSSTAYMQLSSLTSEDSAVYYCARSGDYYAMDYWGQGTSVTVSS
VL: SIVMTQTPKFLLVSAGDRVTITCKASQSVSNDVAWYQQKPGQSPKLLIYYASNRYTGVPDRFTGSGYGTDFTFTISTVQAEDLAVYFCQQDYSSPPTFGGGTKLEIKR
Consider B6, for which the figures for the percent inhibition in assay [3] and in assay [4] were more than 50% and 30 to 50%, respectively. The absorbance is not below 1 absorbance in assay [5] and more than 2 od in assay [6].

B7: F1245-5-1 (antibody, V domains shown)
VH: QVQLQQPGAELVKPGASVKLSCKASGYTFISYWMHWVKQRPGQGLEWIGMIHPNSGSTHYNEKFKSKATLTVDKSSSTAYMQLSSLTSEDSAVYYCARGGVTPVAYWGQGTLVTVSA
VL: SIVMTQTPKFLLVSAGDRVTITCKASQSVSNDVAWYQQKPGQSPKLLIYYASNRYTGVPDRFTGSGYGTDFTFTISTVQAEDLAVYFCQQDYSSPWTFGGGTKLEIKR
In the case of B7, the values for the percent inhibition in assay [3] and in assay [4] were 10 to 30% and 30 to 50%, respectively. In addition, the absorbance in assay [5] is not below 1 absorbance; in assay [6], 1 to 2 od.

B8: F1245-6-2 (antibody, V domains shown)
VH: QVQLQQPGAELVKPGASVKLSCKASGYTFTSYWMHWVKQRPGQGLEWIGMIHPNSGSTNYNEKFKSKATLTVDKSSSTAYMQLSSLTSEDSAVYYCARGGVTPVAYWGQGTLVTVSA
VL: SIVMTQTPKFLLVSAGDRVTITCKASQSVSNDVAWYQQKPGQSPKLLIYYASNRYTGVPYRFTGSGYGTDFTFTISTVQAEDLAVYFCQQDYSSPWTFGGGTKLEIKR
Turning to B8, the percent inhibition is 10 to 30% in assay [3] and more than 50% in assay [4]. Also, the values for the absorbance in assay [5] and in assay [6] were not below 1 absorbance and 1 to 2 od, respectively.

B9: F1249-5-1 (antibody, V domains shown)
VH: QVQLQQPGAELVKPGASVKLSCKASGYTFTSYWMHWLKQRPGQGLEWIGMIHPNSDITNYNEKFKNKATLTVAKSSSTAYMQLSSLTSEDSAVYYCARLGDYYAMDYWGQGTSVTVSS
VL: SIVMTQTPKFLLVSAGDRVTITCKASQSVSNDVTWYQQKPGQSPKLLIYYASNRYTGVPDRFTGSGYGTDFTFTISTVQAEDLAVYFCQQDYSSPPTFGGGTKLEIKR
Consider B9, for which the percent inhibition lay in the range of 10 to 30% in assay [3] and 30 to 50% in assay [4]. The absorbance in assay [5] was not below 1 absorbance; in assay [6], 1 to 2 od.
